# Results published in the Immune Epitope Database (IEDB).
# Experiments:
# HLA-A*02:01 = experiment: IEDB peptide-MHC binding, purified MHC/competitive/fluorescence; ≥ and ≤ were set here for values at or beyond the usual limits of such assays
# HLA-A*24:02 = experiment: as above
# HLA-A*68:02 = experiment: IEDB peptide-MHC binding, purified MHC/competitive/radioactivity; filed as Kd, often an IC50 or EC50 that approximates it; ≥ and ≤ were set here for values at or beyond the usual limits of such assays
# HLA-B*44:02 = experiment: as above
# HLA-B*53:01 = experiment: as above
# HLA-B*44:03 = experiment: as above
# HLA-B*58:01 = experiment: IEDB peptide-MHC binding, purified MHC/direct/fluorescence; filed as Kd, often an IC50 or EC50 that approximates it; ≥ and ≤ were set here for values at or beyond the usual limits of such assays
# HLA-B*57:01 = experiment: as above
# HLA-B*51:01 = experiment: IEDB peptide-MHC binding, purified MHC/competitive/radioactivity; filed as Kd, often an IC50 or EC50 that approximates it; ≥ and ≤ were set here for values at or beyond the usual limits of such assays
# HLA-A*30:01 = experiment: as above
# HLA-A*02:03 = experiment: as above
# HLA-A*02:06 = experiment: as above
# HLA-A*02:02 = experiment: as above
# HLA-A*32:01 = experiment: as above
# HLA-A*26:01 = experiment: as above
# HLA-A*69:01 = experiment: IEDB peptide-MHC binding, purified MHC/direct/fluorescence; filed as Kd, often an IC50 or EC50 that approximates it; ≥ and ≤ were set here for values at or beyond the usual limits of such assays; conditions: source organism: Homo sapiens
# HLA-A*11:01 = experiment: as above; conditions: source organism: Homo sapiens
# HLA-A*01:01 = experiment: as above; conditions: source organism: Homo sapiens
# HLA-B*40:01 = experiment: as above; conditions: source organism: Mycobacterium tuberculosis
# [1] = source organism: Zaire ebolavirus
# [2] = source organism: Dengue virus 2 Jamaica/1409/1983
# [3] = source organism: Dengue virus 3 Martinique/1243/1999
# [4] = source organism: Dengue virus 4 Philippines/H241/1956
# [5] = source organism: Dengue virus 2 Peru/IQT2913/1996
# [6] = source organism: Brucella abortus 2308
# [7] = source organism: Dengue virus 1 Brazil/97-11/1997
# [8] = source organism: Vaccinia virus Copenhagen
# [9] = source organism: Vaccinia virus WR
# [10] = source organism: Sudan ebolavirus
# [11] = source organism: Toxoplasma gondii
# [12] = source organism: Trypanosoma cruzi
sequence,measurement,setting,value
RTLAAMPEE,IC50,HLA-A*02:01; [1],≥ 351000 nM
same,IC50,HLA-A*24:02; [1],6750 nM
GVVTRSGAYV,Kd,HLA-A*68:02; [2],333 nM
HYWTTQDEG,IC50,HLA-A*24:02; [1],42800 nM
VTPSMTMRCV,Kd,HLA-A*68:02; [3],193 nM
IEKTKTDFGF,Kd,HLA-B*44:02; [4],1730 nM
QPTELRYSW,Kd,HLA-B*53:01; [5],52.6 nM
AMYADDTAGW,Kd,HLA-B*44:02; [2],124 nM
AEPIDIQTW,Kd,HLA-B*44:03; source organism: Homo sapiens,66 nM
KRSNTTGKL,IC50,HLA-A*24:02; [1],66100 nM
VARGARFFL,Kd,HLA-B*58:01; [6],≥ 20000 nM
same,Kd,HLA-B*57:01; [6],509 nM
EPEVANLDI,Kd,HLA-B*53:01; [7],7230 nM
same,Kd,HLA-B*51:01; [7],≥ 44500 nM
RFRTVLISK,Kd,HLA-A*30:01; [8],4.59 nM
QTQSRPIQN,IC50,HLA-A*24:02; [1],≥ 128000 nM
KGFYASPSV,Kd,HLA-A*30:01; [9],2.68 nM
RAILGCAQA,Kd,HLA-A*30:01; [9],2370 nM
EEREIPERSW,Kd,HLA-B*44:02; [2],66.5 nM
same,Kd,HLA-B*44:03; [2],242 nM
NLQKESRACL,Kd,HLA-A*68:02; source organism: Homo sapiens,19700 nM
ITLVVISVI,Kd,HLA-A*02:03; [9],1810 nM
same,Kd,HLA-A*02:06; [9],1030 nM
same,Kd,HLA-A*02:02; [9],15100 nM
same,Kd,HLA-A*32:01; [9],≥ 35300 nM
GTNGNHMQI,IC50,HLA-A*02:01; [10],62900 nM
same,IC50,HLA-A*24:02; [10],3020 nM
PFDAVLYYH,IC50,HLA-A*24:02; [1],4690 nM
EAIMAVGMV,Kd,HLA-A*68:02; [2],1.79 nM
same,Kd,HLA-A*26:01; [2],43.9 nM
TVFFVLMML,Kd,HLA-A*68:02; [4],36 nM
KTSGRGSCM,Kd,HLA-B*58:01; [11],6000 nM
same,Kd,HLA-B*57:01; [11],≥ 20000 nM
FVNYNFTLV,Kd,HLA-A*02:03; [12],0.759 nM
same,Kd,HLA-A*68:02; [12],0.336 nM
same,Kd,HLA-A*02:06; [12],0.0031 nM
same,Kd,HLA-A*02:02; [12],10.4 nM
CARISSRES,Kd,HLA-A*30:01; [8],586 nM
QRWGGTCHI,IC50,HLA-A*24:02; [1],43300 nM
KFMSNGEHV,IC50,HLA-A*02:01; [9],27700 nM
same,IC50,HLA-A*24:02; [9],4440 nM
TLYAVATTI,Kd,HLA-A*02:03; [4],11.2 nM
same,Kd,HLA-A*32:01; [4],356 nM
NEGIMAIGI,Kd,HLA-B*44:02; [7],18.8 nM
same,Kd,HLA-B*44:03; [7],109 nM
ELRRQVDQL,Kd,HLA-A*68:02; source organism: Homo sapiens,1210 nM
MTAGIFLFFM,Kd,HLA-A*68:02; [4],10.4 nM
same,Kd,HLA-A*26:01; [4],15.9 nM
GSEDRDLLY,Kd,HLA-A*69:01,3960 nM
same,Kd,HLA-A*11:01,6940 nM
same,Kd,HLA-A*01:01,42.6 nM
LLEGEEERL,Kd,HLA-A*68:02; source organism: Homo sapiens,≥ 136000 nM
same,Kd,HLA-A*02:06; source organism: Homo sapiens,≥ 20500 nM
FHKDGAFFL,IC50,HLA-A*02:01; [10],≥ 92900 nM
same,IC50,HLA-A*24:02; [10],6730 nM
KSKQLKSFL,Kd,HLA-A*30:01; [9],13.2 nM
YAPFARLLN,IC50,HLA-A*02:01; [1],≥ 87800 nM
same,IC50,HLA-A*24:02; [1],19300 nM
AEIPLQWIA,Kd,HLA-B*44:02; [3],68.6 nM
same,Kd,HLA-B*44:03; [3],634 nM
AFHKDGAFF,IC50,HLA-A*24:02; [10],9670 nM
EPPFGESYI,Kd,HLA-B*51:01; [7],13800 nM
TPEGIIPSMF,Kd,HLA-B*53:01; [2],417 nM
CTILAVVSV,Kd,HLA-A*68:02; source organism: Dengue virus 2 16681-PDK53,54.1 nM
NARLMRALK,Kd,HLA-A*30:01; [9],2.22 nM
KVYIGYCMA,Kd,HLA-A*30:01; [9],2.6 nM
RTRYDTFKV,Kd,HLA-A*30:01; [9],0.197 nM
LAGVSLLPV,Kd,HLA-B*51:01; [3],1910 nM
NEIRALMAL,Kd,HLA-B*40:01,18.2 nM
AERVLDWLEK,Kd,HLA-B*44:02; [7],3270 nM
ADSGCVINW,Kd,HLA-B*44:02; [7],70.7 nM
LPVWLAYKV,Kd,HLA-B*53:01; [5],157 nM
same,Kd,HLA-B*51:01; [5],515 nM
MEHKYSWKSW,Kd,HLA-B*44:02; [7],11.2 nM
same,Kd,HLA-B*44:03; [7],137 nM
same,Kd,HLA-A*32:01; [7],2040 nM
